# Experimental data taken from patent publication US20140243255A1.
# Target: Mtb ClpP1P2 protease complex (one heptameric ClpP1 ring and one heptameric ClpP2 ring) (Mycobacterium tuberculosis) (UniProt P0A527)
row,Substance,Kd
1,Z-Leu-Leu (peptide),2200 µM
2,Z-Leu-leucinal (peptide),240 µM
